In paper PMC11165477:

What was measured:
[1] = molecular target: Ma1α-neoGreen, expressed in Xenopus laevis oocytes (apple (Malus domestica)); test: single-molecule photobleaching step counting (TIRF); competition: Ma1α-neoGreen in X. laevis oocytes co-injected with 25% or 50% of the total cRNA as untagged Ma1β
[2] = molecular target: Ma1α-neoGreen, expressed in Xenopus laevis oocytes (apple (Malus domestica)); test: single-molecule photobleaching step counting (TIRF); Ma1α-neoGreen alone in X. laevis oocytes, 16-24 h after cRNA injection, vitelline membrane removed, ND96 solution

percent Ma1α-neoGreen dimer population (two bleaching steps) with 25% of the total cRNA as untagged Ma1β [1] [%]	percent Ma1α-neoGreen dimer population (two bleaching steps) with 50% of the total cRNA as untagged Ma1β [1] [%]	percent of fluorescent spots with two discrete bleaching steps [2] [%]	stoichiometry N [2]	Substance
38	30			Ma1β, untagged, expressed in Xenopus laevis oocytes (natural protein)
		72	2	Ma1α-neoGreen, expressed in Xenopus laevis oocytes (natural protein)
